B1: His-tagged Plasmodium falciparum importin α (natural protein, UniProt Q8IAW0 1-545, looked up)
chain: MDRRIEARRKEFKKNCDDTRRKREDLVVQIRKQQRECQLESKRAMVMANIGFEENNTYNLNYAKGNQNDSTNDSIYNTSSNNSSNTLEMLKKIPTLAIGVRSNEYVTQLNSTRELRKLLSIEKGPPIQEVINSGVVPYIVEFLKYDDKTDLQFEAAWVITNIASGSQEQTKVVIDNNAVPHLVRLLSSEKEDVCEQAVWALGNIAGDSAECREYVLNQNSLPLLLKILRTSHKRTLIRNAAWTLSNLCRGKPAPKFEIVSKALPTLAALIYNDDEEILTDACWTLSYLSDGSNENINSVLDAGVAERVVELLSHCSFLVQTPALRTVGNIVTGDDLQTDVVVKLGAVQKLSCLLNSSKKSIKKEACWALSNITAGNISQIQAVIDNNVIPQLINILMKEDFEVRKEAAWAISNASSGGSELQIEYLVECGAIHSLSNLLDVEDANIISVTLEGLENILEMGENKKLRDNLPTNPYVHLFEECDSVHKIDALQDRKVDNICNKAWKILYKYFPFVINNELNNAQIPLNNVFANTEDAVLNKDFTFD
notes: importin α (IMPα) of Plasmodium falciparum; also called PfIMPα; His-tagged PfIMPα

Assays:
Details in all cases: both partners purified
[1] = molecular target: T1, biotinylated GST-MmIMPβ1 (Mus musculus importin β1) (Mus musculus, UniProt P70168 1-876, biotin (Sulfo-NHS-Biotin reagent)); experiment: AlphaScreen or HTRF; His-tagged IMPαs (30 nM) titrated with increasing concentrations of biotinylated GST-MmIMPβ1 (legend: 5 nM)
T1 construct: Mus musculus importin β1 (MmIMPβ1); also called M. musculus IMPβ1; mammalian IMPβ1; source: recombinantly expressed, purified as GST fusion protein

[2] = molecular target: mammalian IMPα/β1 heterodimer from M. musculus (Mus musculus, UniProt P52293 1-529; P70168 1-876, biotin (Sulfo-NHS-Biotin reagent)); experiment: AlphaScreen or HTRF; biotinylated IMPαs titrated against His-tagged NLS-GFPs (30 nM); apparent dissociation constant
[3] = molecular target: T2, Plasmodium falciparum importin α, biotinylated GST fusion protein (Plasmodium falciparum, UniProt Q8IAW0 1-545, biotin (Sulfo-NHS-Biotin reagent)); experiment: as above
T2 construct: importin α (IMPα) of Plasmodium falciparum; also called PfIMPα; IMPα from P. falciparum; source: recombinantly expressed, purified as GST fusion protein
T2 sequence (looked up): B1 chain

[4] = molecular target: T3, Toxoplasma gondii importin α, biotinylated GST fusion protein (Toxoplasma gondii, biotin (Sulfo-NHS-Biotin reagent)); experiment: as above
T3 construct: importin α (IMPα) of Toxoplasma gondii; also called TgIMPα; T. gondii IMPα; source: recombinantly expressed, purified as GST fusion protein

Binder	Kd [1]	Kd [2]	Kd [3]	Kd [4]
B1	1.3 nM			
PPKKKRKV (domain or fragment) [His-tagged T-ag-NLS-GFP (NLS of simian virus SV40 large tumour antigen fused to GFP)]		2.8 nM	2.9 nM	3.9 nM

Source: article PMC9695642, “Conservation of Importin α Function in Apicomplexans: Ivermectin and GW5074 Target Plasmodium falciparum Importin α and Inhibit Parasite Growth in Culture” (International Journal of Molecular Sciences, 2022)
